Test results from US20120052092A1 (published 2012).

Tests used:
[1] = molecular target: 6 7H 8; assay: SPR; 402His
[2] = molecular target: 6 7Y 8; assay: SPR; 402Tyr
[3] = molecular target: fH678 His 402; assay: SPR; 402His
[4] = molecular target: fH678 Tyr402; assay: SPR; 402Tyr
[5] = molecular target: FH67 N339E M340S; assay: SPR
[6] = molecular target: T1, factor H binding protein (wild type, variant 1) (UniProt E6MV22 20-274); assay: SPR; 402His
T1 chain: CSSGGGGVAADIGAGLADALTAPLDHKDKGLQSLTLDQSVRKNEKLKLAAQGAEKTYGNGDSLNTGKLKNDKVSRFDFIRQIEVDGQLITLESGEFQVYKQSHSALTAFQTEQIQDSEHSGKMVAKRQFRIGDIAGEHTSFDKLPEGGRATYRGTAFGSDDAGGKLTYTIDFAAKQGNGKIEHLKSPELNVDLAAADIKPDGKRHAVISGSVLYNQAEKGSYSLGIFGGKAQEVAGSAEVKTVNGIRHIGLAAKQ

[7] = molecular target: T1, factor H binding protein (wild type, …); assay: SPR
[8] = molecular target: fHbp Variant 3 (Neisseria meningitidis); assay: SPR
[9] = molecular target: fHbp Variant 2 (Neisseria meningitidis); assay: SPR
[10] = molecular target: fHbp variant 3 (Neisseria meningitidis); assay: SPR; sensorgram
[11] = molecular target: fHbp variant 2 (Neisseria meningitidis); assay: SPR; sensorgram
[12] = molecular target: T1, factor H binding protein (wild type, …); assay: SPR
[13] = molecular target: T2, Neisseria gonorrhoeae fHbp homologue (NGO0033) (Neisseria gonorrhoeae); assay: SPR
T2 chain: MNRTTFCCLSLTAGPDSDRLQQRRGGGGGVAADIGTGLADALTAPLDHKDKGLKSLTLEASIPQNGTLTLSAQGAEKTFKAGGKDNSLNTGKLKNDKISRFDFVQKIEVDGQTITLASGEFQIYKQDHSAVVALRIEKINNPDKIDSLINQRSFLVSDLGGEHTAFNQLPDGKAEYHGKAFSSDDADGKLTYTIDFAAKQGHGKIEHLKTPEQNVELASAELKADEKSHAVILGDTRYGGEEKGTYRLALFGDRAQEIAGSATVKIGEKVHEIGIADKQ

B1: fHbp (other)
chain: CSSGGGGVAADIGAGLADALTAPLDHKDKGLQSLTLDQSVRKNEKLKLAAQGAEKTYGNGDSLNTGKLKNDKVSRFDFIRQIEVDGQLITLESGEFQVYKQSHSALTAFQTEQIQDSEHSGKMVAKRQFRIGDIAGEHTSFDKLPEGGRATYRGTAFGSDDAGGKLTYTIDFAAKQGNGKIEHLKSPELNVDLAAADIKPDGKRHAVISGSVLYNQAEKGSYSLGIFGGKAQEVAGSAEVKTVNGIRHIGLAAKQ
Kd [1]: 6 nM | Kd [2]: 7 nM | Kd [3]: 5.7 nM | Kd [4]: 7.2 nM

B2: fHbp Variant 1 (other)
chain: CSSGGGGVAADIGAGLADALTAPLDHKDKGLQSLTLDQSVRKNEKLKLAAQGAEKTYGNGDSLNTGKLKNDKVSRFDFIRQIEVDGQLITLESGEFQVYKQSHSALTAFQTEQIQDSEHSGKMVAKRQFRIGDIAGEHTSFDKLPEGGRATYRGTAFGSDDAGGKLTYTIDFAAKQGNGKIEHLKSPELNVDLAAADIKPDGKRHAVISGSVLYNQAEKGSYSLGIFGGKAQEVAGSAEVKTVNGIRHIGLAAKQ
Kd [5]: 67 nM

B3: Factor H Domains 5, 6 and 7 (other)
chain: KSCDNPYIPNGDYSPLRIKHRTGDEITYQCRNGFYPATRGNTAKCTSTGWIPAPRCTLKPCDYPDIKHGGLYHENMRRPYFPVAVGKYYSYYCDEHFETPSGSYWDHIHCTQDGWSPAVPCLRKCYFPYLENGYNQNYGRKFVQGKSIDVACHPGYALPKAQTTVTCMENGWSPTPRCI
Kd [6]: 6 nM | Kd [7]: 6.1 nM

B4: FH678 (other)
chain: TLKPCDYPDIKHGGLYHENMRRPYFPVAVGKYYSYYCDEHFETPSGSYWDHIHCTQDGWSPAVPCLRKCYFPYLENGYNQNYGRKFVQGKSIDVACHPGYALPKAQTTVTCMENGWSPTPRCIRVKTCSKSSIDIENGFISESQYTYALKEKAKYQCKLGYVTADGETSGSITCGKDGWSAQPTCIKSC
Kd [8]: 3 nM | Kd [9]: 2 nM | Kd [10]: 3.43 nM | Kd [11]: 1.51 nM

B5: fH67 (CCPs 6 and 7 of factor H) (other)
chain: TLKPCDYPDIKHGGLYHENMRRPYFPVAVGKYYSYYCDEHFETPSGSYWDHIHCTQDGWSPAVPCLRKCYFPYLENGYNQNYGRKFVQGKSIDVACHPGYALPKAQTTVTCMENGWSPTPRCI
Kd [12]: 5 nM | Kd [13]: 6000 nM | Kd [6]: 4 nM | Kd [7]: 4 nM

B6: FH67 (other)
chain: TLKPCDYPDIKHGGLYHENMRRPYFPVAVGKYYSYYCDEHFETPSGSYWDHIHCTQDGWSPAVPCLRKCYFPYLENGYNQNYGRKFVQGKSIDVACHPGYALPKAQTTVTCMENGWSPTPRCI
Kd [8]: 3 nM | Kd [9]: 2 nM
